Assay: yeast display, Sf9 membrane polyspecificity reagent, FACS + sequencing; frameworks hold sequencing errors
Procedure, shortened: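 Nanobodies from a synthetic yeast display library (Saccharomyces cerevisiae BJ5465), induced 36–48 hours with galactose, were stained 1 hour at 4 °C with 10% biotinylated, detergent-solubilized Sf9 membrane reagent, enriched on streptavidin microbeads, then FACS-sorted. Anti-HA (expression) and streptavidin (reagent binding) fluorescence set low and high (top ~1%) gates. Polyreactivity labels come from the gate of origin. Genes were colony-PCR amplified, MiSeq 2 × 250 sequenced and filtered by CDR length.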

Q: For “QVQLVESGGGLVQAGGSLRLSCAASGNTFATYALGWYRQAPGKERELVAAITWSGGSTYYADSVKGRFTISRDNAKNTVYLQMNSLKPEDTAVYYCAADYLYYAIPAYYWDTGYDYWGQGTQVTVSS”, which “polyreactivity (PSR sort gate)” value is on record?
A: low polyreactivity

Q: Which “polyreactivity (PSR sort gate)” value does the source give for “QVQLVESGGGLVQAGGSLRLSCAASGNTFAVNAMGWYRQAPGKERELVAAISKRGGRTYYADSVKGRFTISRDNAKNTVYLQMNSLKPEDTAVYYCAADLSNSMDYWGQGTQVTVSS” here?
A: high polyreactivity

Q: For “QVQLVESGGGLVQAGGSLRLSCAASGNTFAYNVMGWYRQAPGKERELVAAISRSGGSTYYADSVKGRFTISRDNAKNTVYLQMNSLKPEDTAVYYCAAVVRRVRPEGSYNRWGHDYWGQGTQVTVSS”, which “polyreactivity (PSR sort gate)” value is on record?
A: high polyreactivity

Q: With “QVQLVESGGGLVQAGGSLRLSCAASGNTFDIYAMGWYRQAPGKERELVAAISRRGGSTYYADSVKGRFTISRDNAKNTVYLQMNSLKPEDTAVYYCNAKHKITHSSSDYWGQGTQVTVSS” as the sequence, how does the “polyreactivity (PSR sort gate)” value read?
A: high polyreactivity

Q: Which “polyreactivity (PSR sort gate)” value does the source give for “QVQLVESGGGLVQAGGSLRLSCAASGNTFFKNAMGWYRQAPGKERELVAAISKRGGSTYYADSVKGRFTISRDNAKNTVYLQMNSLIPEDTAVYYCAADTFGVYASTYDYWGQGTQVTVSS” here?
A: high polyreactivity

Q: With “QVQLVESGGGLVQAGGSLRLSCAASGNTFFVYAMGWYRQAPGKERELVADINWSTGSTYYADFVKGRFTISRDNAKNTVYLQMNSLKPEDTAVYYCAAEAYYYVIFHGSWYTDDYWGQGTQVTVSS” as the sequence, how does the “polyreactivity (PSR sort gate)” value read?
A: low polyreactivity

Q: For “QVQLVESGGGLVQAGGSLRLSCAASGNTFGDNAMGWYRQAPGKERELVAAISTGGNTYYADSVKGRFTISRDNAKNTVYLQMNSLKPEDTAVYYCNAKWIPDTLFGIHETEGDYWGQGTQVTVSS”, which “polyreactivity (PSR sort gate)” value is on record?
A: low polyreactivity

Q: With “QVQLVESGGGLVQAGGSLRLSCAASGNTFGINAMGWYRQAPGKERELVASISFTGSSTYYADSVKGRFTISRDNAKNTVYLQMNSLKPEDTAVYYCNRDRITLYEYDYWGQGTQVTVSS” as the sequence, how does the “polyreactivity (PSR sort gate)” value read?
A: low polyreactivity

Q: With “QVQLVESGGGLVQAGGSLRLSCAASGNTFGLYAMGWYRQAPGKDRELVATITWSVSTYADSEKGRFTISRDNAKITVYLEMNSLKPEDTAVYFCAATTGPWYWRYVYWGQGTQVTVSS” as the sequence, how does the “polyreactivity (PSR sort gate)” value read?
A: high polyreactivity

Q: Which “polyreactivity (PSR sort gate)” value does the source give for “QVQLVESGGGLVQAGGSLRLSCAASGNTFGNYGMGWYRQAPGKEREFVAAITSRGTSTYYADSVKGRFTISRDNAKYTVYLQMNSLKPEDTAVYYCNARPRYKYPRYDYWGQGTQVTVSS” here?
A: high polyreactivity

Q: For “QVQLVESGGGLVQAGGSLRLSCAASGNTFGQYTMGWYRQAPGKERELVAAISWDDSSTNYADSVKGRFTISRDNAKNTVYLQMNSLIPEDTAVYYCAKETELGTQYPYEYDYWGQGTQVTVSS”, which “polyreactivity (PSR sort gate)” value is on record?
A: low polyreactivity

Q: With “QVQLVESGGGLVQAGGSLRLSCAASGNTFGRYAMGWYRQAPGKERELVASIRGSSVRTFYADSVKGRFTISRDNAKNTVYLQMNSLKPEDTAVYYCAAEVYRYYATGYGYWGQGTQVTVSS” as the sequence, how does the “polyreactivity (PSR sort gate)” value read?
A: high polyreactivity

Q: Which “polyreactivity (PSR sort gate)” value does the source give for “QVQLVESGGGLVQAGGSLRLSCAASGNTFGVYAMGWYRQAPGKERELVAAIRYRGGSTYYADSVKGRFTISRDKAKNTVYLQMTSLKPEETAVYYCAAVYYVQYVGRYYYWGQGTQVTVSS” here?
A: high polyreactivity

Q: Which “polyreactivity (PSR sort gate)” value does the source give for “QVQLVESGGGLVQAGGSLRLSCAASGNTFHYYTMGWYRQAPGKERELVAAITRSAGRTYYADSVKGRFTISRDNAKTTVYLQMNSLKPEDTAVYYCATERERTMGYWGQGTQVTVSS” here?
A: high polyreactivity

Q: With “QVQLVESGGGLVQAGGSLRLSCAASGNTFLWYAMGWYRQAPGKEREFVAAIRRSGASTYYADSVKGRFTISRDNAKNTVYLQMNSLKPEDTAVYYCAAKFVYWSGAVYTRYDYWGQGTQVTVSS” as the sequence, how does the “polyreactivity (PSR sort gate)” value read?
A: high polyreactivity

Q: Which “polyreactivity (PSR sort gate)” value does the source give for “QVQLVESGGGLVQAGGSLRLSCAASGNTFLWYAMGWYRQAPGKERELGAAISRGGGSTYYADSVKGRFTISRDNAKNTVYLQMNSLKPEDTAVYYCAARTYYSARSIHYREFEYWGQGTQVTVSS” here?
A: high polyreactivity

Q: Which “polyreactivity (PSR sort gate)” value does the source give for “QVQLVESGGGLVQAGGSLRLSCAASGNTFNNNAMGWYRQAPGKERELVAAISGSGGSTYYADSVKGRFTISRDNAKNTVYLQMNSLKPEDTAVYYCAVRLVHGGKRYGYWGQGTQVTVSS” here?
A: high polyreactivity

Q: With “QVQLVESGGGLVQAGGSLRLSCAASGNTFNPNAMGWYRQAPGKERELVAVIRFRGGSTYYADSVKGRFTISRDNAKNTVYLQMNSLKPEDTAVYYCAADFLYYYLRYYYWGQGTQVTVSS” as the sequence, how does the “polyreactivity (PSR sort gate)” value read?
A: high polyreactivity

Q: With “QVQLVESGGGLVQAGGSLRLSCAASGNTFQSYAMGRYRQAPGKEREFVAAIRQSGGSTYYADSVKGRFTISRDTAKYTVYLQMNSLKPEATAVYYCAAYFTPRKYKPYDYWGLGTQVTVSS” as the sequence, how does the “polyreactivity (PSR sort gate)” value read?
A: high polyreactivity

Q: With “QVQLVESGGGLVQAGGSLRLSCAASGNTFRNYAMGWYRQAPGKERELVAAISWTGARTYYADSVKGRFTISRDNAKNTVYLQMNSLKPEDTAVYYCARPLQWWSPSGTVDYGYWGQGTQVTVSS” as the sequence, how does the “polyreactivity (PSR sort gate)” value read?
A: high polyreactivity

Q: With “QVQLVESGGGLVQAGGSLRLSCAASGNTFSAYAMGWYRQAPGKERELVAAISSRGGSTYYADSVKGRFTISRDNAKNTVYLQMNSLKPEDTAVYYCAAGYRGVANRKWIYYYWGQGTQVTVSS” as the sequence, how does the “polyreactivity (PSR sort gate)” value read?
A: high polyreactivity

Q: With “QVQLVESGGGLVQAGGSLRLSCAASGNTFSDYAMGWYRQAPGKERELVAAISSSGVRTYYADSVKVRFTISRDNAKNTVYLHMISLNPEDTAVYYCAADNYYYRFVAAMDYWGQGTQVTVSS” as the sequence, how does the “polyreactivity (PSR sort gate)” value read?
A: high polyreactivity

Q: For “QVQLVESGGGLVQAGGSLRLSCAASGNTFSSYAMGWYRQAPGKVRELVAAISRRGGSTYYADSVKRRFTISRDHAKTTVYLQMNSLKPEDTAVYYCAADGTGFRSLRYDYWGQGTQVTVSS”, which “polyreactivity (PSR sort gate)” value is on record?
A: high polyreactivity

Q: Which “polyreactivity (PSR sort gate)” value does the source give for “QVQLVESGGGLVQAGGSLRLSCAASGNTFSWYAMGWYRQAPGKERELVAVIRDGSTYYADSVKGRFTISRDNAKNTVYLQMNRLKPEDTAVYYCRYDIWVWWSGAYDYWGQGTQVTVSS” here?
A: low polyreactivity

Q: Which “polyreactivity (PSR sort gate)” value does the source give for “QVQLVESGGGLVQAGGSLRLSCAASGNTFTFNAMGWYRQAPGKERELVAAINRGDSTNYADSVKGRFTISRDNAKNTVYLQMNSLKPEDTAVYYCAAGTLYWNYNRYDLYYYWGQGTQVTVSS” here?
A: high polyreactivity

Q: With “QVQLVESGGGLVQAGGSLRLSCAASGNTFTFYAMGWYRQAPGTERELVASITGRGGSTYYADSVKGRFTISRDNAKNTVYLQMNSLKPEDTAVYYCNADYNSFRYRPPTTRDYWGQGTQVTVSS” as the sequence, how does the “polyreactivity (PSR sort gate)” value read?
A: low polyreactivity

Q: Which “polyreactivity (PSR sort gate)” value does the source give for “QVQLVESGGGLVQAGGSLRLSCAASGNTFTKYAMGWYRQAPGKERELVADITIGGSTYYADSVKGRFTISRDNAKNTVYLQMNSLKPEDTAVYYCNADVVVQYYFTYYRVFTYDYWGQGTQVTVSS” here?
A: low polyreactivity

Q: Which “polyreactivity (PSR sort gate)” value does the source give for “QVQLVESGGGLVQAGGSLRLSCAASGNTFTKYAMGWYRQAPGKERELVAGITRGGSTNYADSVKGRFTISRDNAKNTVYLQMNSLKPEDTAVYYCNARPVYGSRFYSAVRMEYWGQGTQVNVSS” here?
A: low polyreactivity

Q: With “QVQLVESGGGLVQAGGSLRLSCAASGNTFVPYAMGWYRQAPGKEREFVAAISSTSGSTYYADSVKGRFTISRDNAKNTVYLQMNSLTPEDTAVYYCAAANHKCSRMDYWGQGTQVTVSS” as the sequence, how does the “polyreactivity (PSR sort gate)” value read?
A: high polyreactivity

Q: For “QVQLVESGGGLVQAGGSLRLSCAASGNTFVPYVMGWYRQAPGKERELVAAISRRGGSTRYADSVKGRFTISRDNAKNTVYLQMNSLNPEDTAVYYCAADGYVFALQRSRGVDFGYEYWGQGTQVTVSS”, which “polyreactivity (PSR sort gate)” value is on record?
A: high polyreactivity

Q: Which “polyreactivity (PSR sort gate)” value does the source give for “QVQLVESGGGLVQAGGSLRLSCAASGNTFVQNDMGWYRQAPGKEREFVAAITWIGGSTRYADSVKGRFTISRDNAKNTVYLQMNSLKPEDTAVYYCAVKPVGWPRYRVDYWGQGTQVTVSS” here?
A: high polyreactivity

Q: For “QVQLVESGGGLVQAGGSLRLSCAASGNTFVQNTMGWYRPATGKETELVAAISTRGGSTYYADSLKGRFTISRDNAKNTVYLQMNSLKPVDTAVYYCAARSKVRRSYDYWGQGTQVTVSS”, which “polyreactivity (PSR sort gate)” value is on record?
A: high polyreactivity

Q: For “QVQLVESGGGLVQAGGSLRLSCAASGNTFVTKAMGWYRQAPGKERELVAAINSSGGSTYYADSVKGRFTISRDNAKNTVYLQMNSLKPEDTAVYYCAADPLGITSGYGYWGQGTQVTVSS”, which “polyreactivity (PSR sort gate)” value is on record?
A: low polyreactivity

Q: Which “polyreactivity (PSR sort gate)” value does the source give for “QVQLVESGGGLVQAGGSLRLSCAASGNTFVTYTMGWYRQAPGKERELVADISSGGSTYYADSVKGRFTISRDNAKNTVYLQMNSLKPEDTAVYYCAVQQAVFRSYYIYHRYYWGQGTQVTVSS” here?
A: high polyreactivity

Q: Which “polyreactivity (PSR sort gate)” value does the source give for “QVQLVESGGGLVQAGGSLRLSCAASGNTFVYNDMGWYRQAPGKERELVADIRYSGSTYYADSVKGRFTISRDNAKNTVYLQMNSLKPEDTAVYYCAVDSYYFLKDPISYGLYYYWGQGSQVTVSS” here?
A: low polyreactivity

Q: Which “polyreactivity (PSR sort gate)” value does the source give for “QVQLVESGGGLVQAGGSLRLSCAASGNTFWGNAMGWYIQAPGKERELVAAITSGGNTNYADSVKGRFTISRDNAKNTVYLQMNSLKPEDTAVYYCNVDLKAWLPDGGSVDYWGQGTQVTVSS” here?
A: low polyreactivity

Q: For “QVQLVESGGGLVQAGGSLRLSCAASGNTFYGYAMGWYRQAPGKERELVASITLSGDSTYYADSVKGRFTISRDNAKKTVYLQMNSLKPEDTAVYYCAGVYTYPLGYYHYTYDYWGQGTQVTVSS”, which “polyreactivity (PSR sort gate)” value is on record?
A: low polyreactivity

Q: Which “polyreactivity (PSR sort gate)” value does the source give for “QVQLVESGGGLVQAGGSLRLSCAASGNTFYGYAMGWYRQAPGKERELVASITLSGDSTYYADSVKGRFTISRDNAKNTVYLQMNSLKPEDTAVYSCAGVYTYPLGYYHYTYDYWGQGTQVTVSS” here?
A: low polyreactivity

Q: Which “polyreactivity (PSR sort gate)” value does the source give for “QVQLVESGGGLVQAGGSLRLSCAASGNTFYHYAMGWYRQAPGKERELVAAITWTGDSTYYADSVKGRFTISRDNAKNTVYLQMNSLKPEDTAVYYCNRVGYQSMNYWGQGTQVTVSS” here?
A: low polyreactivity

Q: Which “polyreactivity (PSR sort gate)” value does the source give for “QVQLVESGGGLVQAGGSLRLSCAASGNTFYQYAMGWYRQAPGKERELVAAIDWSGGSTYADSVKGRFTISRDNAKNTVYLQMNSLKPEDTAVYYCNASVKPSNVWSRGYDYWGQGTQVTVSS” here?
A: low polyreactivity

Q: With “QVQLVESGGGLVQAGGSLRLSCAASGNTFYQYAMGWYRQAPGTERELVAAISSSGGSTYYADSVKGRFTISRDNAKKTVYLQMNSLKPEDTAVYYCATDKSYGYYYWGQGTQVTVSS” as the sequence, how does the “polyreactivity (PSR sort gate)” value read?
A: low polyreactivity

Q: Which “polyreactivity (PSR sort gate)” value does the source give for “QVQLVESGGGLVQAGGSLRLSCAASGNTFYRYAMGWYRQAPGKEREFVAGITSRGGSTSYADSVKGRFTISRDNAKNTVYLQMNSLKPEDTAVYYCAKKYFRPLRSYDYWGQGTQVTVSS” here?
A: high polyreactivity

Q: For “QVQLVESGGGLVQAGGSLRLSCAASGNTFYSNAMRWYRQAPGKERELVAAISTSGGSTFYADSVKGRFTISRDNAKNTVYLQMNSLKPEDTAVYYCAARSLRGHRYRYDYWGQGTQVTVSS”, which “polyreactivity (PSR sort gate)” value is on record?
A: high polyreactivity
